Source: PMC7746861, “Acetate Metabolism in Archaea: Characterization of an Acetate Transporter and of Enzymes Involved in Acetate Activation and Gluconeogenesis in Haloferax volcanii” (Frontiers in Microbiology, 2020)

B1: PPS (Haloferax volcanii DS2) (protein)
chain: MAVVWLDDVRADDLDLVGGKGASLGELTGAGLPVPPGFVVTASTYRAFIEDAGIDDELFAAVEVDHEDSEALQAAHETAHDLIMETPMPDDVREEILDAYRSVGEGDAFVAVRSSATAEDLPDASFAGQQETFLNVTEEDLLDRVKECWASLFSERAIYYRNRKGFPHDKVDIAVVVQQMVDAEKSGVMFTRHPSTGKKEIIIEAAWGLGEAVVSGTVSPDNYVVSRETGEVETATIADKKTMCVRDEESGETVMRDVPNGRRHERVLTDDEVSRLLELGELVEDHYEKPQDVEWAVYDGEVYMLQSRPITTIAEGDDGEETESEGDSSGSSRATATGDDVLIRGLGASPGIASGRARIVTKLDHLDQVAEGDIIVTEMTMPDMVPAMKRAAGIVTDEGGMTSHAAIVSRELGVPAVVGTGDGTKTLEDGEVVTIDGDKGTVREGEEPEEKQRQPVEEARPKTPVKPMTATEVKVNVSIPEAAERAAATGADGVGLLRIEHMVLTLGKTPGRFIEQNGERAYVDEIVSGVREAAEEFYPRPVRVRTLDAPTDEFRQLEGGENEPREHNPMLGYRGIRRGLDNPSVFRLELQAFRRLFDMGYDNLEVMFPLVNDAEDVLRAKEHMREAGIDPEKREWGVMIETPAAALCIEELADAGIDFASFGTNDLTQYTLAVDRNNEHVADIYDELHPAVLKLIGDTIETCREVGVKTSICGQAGSKPKMVQFLVDKGVSSISANIDAVRDVQHEVKRVEQRLLLDSVR
notes: full length, Ni-NTA purified, homologous expression in H. volcanii
B2: ACS7 (Haloferax volcanii DS2) (protein)
chain: MAQGDAELEARLAEQDEFEPTEEFVAQANVSDAGIYDEFEENWPDCWERAADLLDWDADYDEVLDDSNPPFYEWFTGGELNACYNCVDRHVENGDKNRVAIKWEGEHGETRTYTYQDLYREVNEFAAALRDLGVEEDDVVTLYMPMVPELPIAMLACARIGAPHNVVFAGFSAEALATRMNAADSRFLVTCDGYYRRGDPLDHLDKTNEGLDSVDHGVDATVVVDRLGDDGFDHDLKGNQHDWDDLLEAQSGERVAPVERDAEDMLFLMYTSGTTGQPKGVKHTTGGYLSYATWTSHAVLDIETEDTYWCSADIGWITGHSYIVYGPLALGSTTVMYEGTPDFPNRDRMWELVEKYAVDIFYTAPTAIRAFMKWGSKYPESRDLSSLRLLGTVGEPINPRAWKWYYEHIGNENCPVVDTWWQTETGGMMITTLPGVKNMKPGSAGPPLPGIDAQIVDTDGDEVEPGRAGYLTVNKPWPGMLRTLYDNDERYISEYWAEYSDTDSDDPDDWVYFPEDGAKVDEDGYITVLGRVDDVINVSGHRLGTMEIESAIVGVEGVAEAAVVGGNHEVKGEAVYAYVITEDGYEEGEDLRARIVEGVEDAIGPIARPEQVVFTPELPKTRSGKIMRRLLEDVANGAELGNTSTLRNPEIVGEIEAKVRAQSD
notes: full length, Ni-NTA purified (pTA963), homologous expression in H. volcanii H1209

Key:
[1] = substrate: CC(=O)C(=O)O; assay: discontinuous PEP formation assay; assay type: biochemical, Haloferax volcanii; conditions: ATP, MgCl2, DTE, 2 M KCl, pH 8.0, 42°C
[2] = substrate: Nc1ncnc2c1ncn2[C@@H]1O[C@H](COP(=O)(O)OP(=O)(O)OP(=O)(O)O)[C@@H](O)[C@H]1O; assay: discontinuous PEP formation assay; assay type: biochemical, Haloferax volcanii; conditions: pyruvate, MgCl2, DTE, 2 M KCl, pH 8.0, 42°C
purified protein [3] = substrate: CC(=O)O; assay: purified protein; conditions: acetate activation, ATP, CoA, MgCl2, 1 M KCl, pH 7.0, 42°C, pH 7.0
purified protein [4] = substrate: CC(=O)SCCNC(=O)CCNC(=O)[C@H](O)C(C)(C)COP(=O)(O)OP(=O)(O)OC[C@H]1O[C@@H](n2cnc3c(N)ncnc32)[C@H](O)[C@@H]1OP(=O)(O)O; assay: purified protein; assay type: biochemical, Haloferax volcanii; conditions: acetate formation (reverse), AMP, PPi, MgCl2, 1 M KCl, pH 7.0, 42°C
purified protein [5] = substrate: CC(C)(COP(=O)(O)OP(=O)(O)OC[C@H]1O[C@@H](n2cnc3c(N)ncnc32)[C@H](O)[C@@H]1OP(=O)(O)O)[C@@H](O)C(=O)NCCC(=O)NCCS; assay: purified protein; assay type: biochemical, Haloferax volcanii; conditions: acetate activation, ATP, CoA, MgCl2, 1 M KCl, pH 7.0, 42°C
purified protein [6] = substrate: Nc1ncnc2c1ncn2[C@@H]1O[C@H](COP(=O)(O)O)[C@@H](O)[C@H]1O; assay: purified protein; assay type: biochemical, Haloferax volcanii; conditions: acetate formation (reverse), acetyl-CoA, PPi, MgCl2, 1 M KCl, pH 7.0, 42°C
purified protein [7] = substrate: Nc1ncnc2c1ncn2[C@@H]1O[C@H](COP(=O)(O)OP(=O)(O)OP(=O)(O)O)[C@@H](O)[C@H]1O; assay: purified protein; assay type: biochemical, Haloferax volcanii; conditions: acetate activation, ATP, CoA, MgCl2, 1 M KCl, pH 7.0, 42°C

Row | Protein | Km [1] | Km [2] | Km (purified protein [3]) | Vmax (purified protein [3]) | Km (purified protein [4]) | Vmax (purified protein [4]) | Km (purified protein [5]) | Km (purified protein [6]) | Km (purified protein [7])
1 | B1 | 270 µM | 360 µM |  |  |  |  |  |  | 
2 | B2 |  |  | 840 µM | 26.1 µmol/min/mg | 150 µM | 6.2 µmol/min/mg | 230 µM | 90 µM | 590 µM
